Values of other authors, collected in article PMC3433420.
Read-outs that look alike come from different tables or passages of the source.

What was measured:
Conditions in all cases: cited from earlier work
[1] = target: SYK-NC (Homo sapiens) (UniProt P43405)
[2] = target: BLK (Homo sapiens) (UniProt P51451)
[3] = target: PLCG1-NC (Homo sapiens) (UniProt P19174)
[4] = target: RASA1-N (Homo sapiens) (UniProt P20936)
[5] = target: TENC1 (Homo sapiens) (UniProt Q63HR2)
[6] = target: VAV1 (Homo sapiens) (UniProt P15498)
[7] = target: BLK (Homo sapiens) (UniProt P51451); remark: listed apart in the source
[8] = target: ITK (Homo sapiens) (UniProt Q08881)
[9] = target: SUPT6H (Homo sapiens) (UniProt Q7KZ85)
[10] = target: SOCS2 (Homo sapiens) (UniProt O14508)
[11] = target: VAV3 (Homo sapiens) (UniProt Q9UKW4)
[12] = target: RASA1-N (Homo sapiens) (UniProt P20936); remark: listed apart in the source
[13] = target: TENC1 (Homo sapiens) (UniProt Q63HR2); remark: listed apart in the source
[14] = target: SLA2 (Homo sapiens) (UniProt Q9H6Q3)
[15] = target: SYK-C (Homo sapiens) (UniProt P43405)
[16] = target: ITK (Homo sapiens) (UniProt Q08881); remark: listed apart in the source
[17] = target: PLCG1-NC (Homo sapiens) (UniProt P19174); remark: listed apart in the source
[18] = target: SH2B3 (Homo sapiens) (UniProt Q9UQQ2)
[19] = target: SH2D1B (Homo sapiens) (UniProt O14796)
[20] = target: VAV3 (Homo sapiens) (UniProt Q9UKW4); remark: listed apart in the source
[21] = target: PLCG2-N (Homo sapiens) (UniProt P16885)
[22] = target: SHC3 (Homo sapiens) (UniProt Q92529)
[23] = target: PIK3R2-NC (Homo sapiens) (UniProt O00459)
[24] = target: TEC (Homo sapiens) (UniProt P42680)
[25] = target: ITK (Homo sapiens) (UniProt Q08881); remark: listed apart in the source
[26] = target: ABL2 (Homo sapiens) (UniProt P42684)
[27] = target: PLCG1-NC (Homo sapiens) (UniProt P19174); remark: listed apart in the source
[28] = target: NCK2 (Homo sapiens) (UniProt O43639)
[29] = target: TNS3 (Homo sapiens) (UniProt Q68CZ2)
[30] = target: BCAR3 (Homo sapiens) (UniProt O75815)
[31] = target: PIK3R2-N (Homo sapiens) (UniProt O00459)
Sequence of PIK3R2-N (Homo sapiens) (O00459 325-721): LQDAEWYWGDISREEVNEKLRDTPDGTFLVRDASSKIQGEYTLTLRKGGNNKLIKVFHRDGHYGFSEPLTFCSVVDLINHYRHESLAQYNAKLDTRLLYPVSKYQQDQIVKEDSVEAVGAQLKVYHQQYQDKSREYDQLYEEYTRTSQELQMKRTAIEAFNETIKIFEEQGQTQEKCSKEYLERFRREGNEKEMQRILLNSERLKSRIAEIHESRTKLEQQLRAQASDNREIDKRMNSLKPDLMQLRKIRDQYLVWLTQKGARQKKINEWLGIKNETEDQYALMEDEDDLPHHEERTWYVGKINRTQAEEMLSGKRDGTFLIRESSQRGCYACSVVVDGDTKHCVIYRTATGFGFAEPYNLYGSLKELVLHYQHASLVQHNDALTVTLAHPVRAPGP

Sequence of PLCG1-NC (Homo sapiens) (P19174 545-761): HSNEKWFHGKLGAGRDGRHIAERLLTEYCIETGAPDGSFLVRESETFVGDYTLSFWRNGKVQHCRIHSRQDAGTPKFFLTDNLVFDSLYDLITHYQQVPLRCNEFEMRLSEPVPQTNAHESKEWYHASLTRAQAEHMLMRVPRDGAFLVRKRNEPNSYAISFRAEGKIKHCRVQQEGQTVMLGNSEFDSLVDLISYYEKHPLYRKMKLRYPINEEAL
Sequence of ITK (Homo sapiens) (Q08881 234-343): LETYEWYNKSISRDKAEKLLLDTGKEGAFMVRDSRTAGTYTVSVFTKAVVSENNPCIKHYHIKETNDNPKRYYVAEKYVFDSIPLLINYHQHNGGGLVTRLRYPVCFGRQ
Sequence of RASA1-N (Homo sapiens) (P20936 176-446): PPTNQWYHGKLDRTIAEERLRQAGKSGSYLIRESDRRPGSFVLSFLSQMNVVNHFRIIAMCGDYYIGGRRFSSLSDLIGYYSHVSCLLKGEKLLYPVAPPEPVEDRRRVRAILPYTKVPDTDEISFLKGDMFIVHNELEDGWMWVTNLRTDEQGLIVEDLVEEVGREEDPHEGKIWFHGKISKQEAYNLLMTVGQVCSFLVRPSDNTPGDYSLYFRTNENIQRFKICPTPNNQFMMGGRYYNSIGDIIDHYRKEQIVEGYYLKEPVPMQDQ
Sequence of VAV3 (Homo sapiens) (Q9UKW4 667-771): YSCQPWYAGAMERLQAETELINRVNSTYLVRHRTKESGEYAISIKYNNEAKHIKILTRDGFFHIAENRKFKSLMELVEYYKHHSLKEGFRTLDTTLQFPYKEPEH
Sequence of BLK (Homo sapiens) (P51451 119-225): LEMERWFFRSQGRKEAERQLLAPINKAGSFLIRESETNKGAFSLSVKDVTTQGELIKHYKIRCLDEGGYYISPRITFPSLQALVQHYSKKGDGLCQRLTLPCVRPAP
Sequence of TENC1 (Homo sapiens) (Q63HR2 1135-1252): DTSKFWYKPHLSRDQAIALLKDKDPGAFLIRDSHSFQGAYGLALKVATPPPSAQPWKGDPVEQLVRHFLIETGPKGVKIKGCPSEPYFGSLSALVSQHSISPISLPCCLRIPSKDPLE
Sequence of SH2D1B (Homo sapiens) (O14796 1-106): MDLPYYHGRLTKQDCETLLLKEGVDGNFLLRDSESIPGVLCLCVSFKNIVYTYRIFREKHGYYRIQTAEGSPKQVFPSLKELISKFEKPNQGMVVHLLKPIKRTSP
Sequence of SHC3 (Homo sapiens) (Q92529 494-594): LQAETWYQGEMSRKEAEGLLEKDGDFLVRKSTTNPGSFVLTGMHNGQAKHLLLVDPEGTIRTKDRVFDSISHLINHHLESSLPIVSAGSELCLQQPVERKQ
Sequence of VAV1 (Homo sapiens) (P15498 666-770): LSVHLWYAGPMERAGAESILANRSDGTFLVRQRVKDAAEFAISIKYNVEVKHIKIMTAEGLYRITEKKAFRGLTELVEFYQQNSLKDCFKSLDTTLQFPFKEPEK
Sequence of TNS3 (Homo sapiens) (Q68CZ2 1167-1287): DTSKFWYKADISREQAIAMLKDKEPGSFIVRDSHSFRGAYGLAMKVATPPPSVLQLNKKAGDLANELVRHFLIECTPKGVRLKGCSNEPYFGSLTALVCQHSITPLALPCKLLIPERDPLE
Sequence of SUPT6H (Homo sapiens) (Q7KZ85 1320-1436): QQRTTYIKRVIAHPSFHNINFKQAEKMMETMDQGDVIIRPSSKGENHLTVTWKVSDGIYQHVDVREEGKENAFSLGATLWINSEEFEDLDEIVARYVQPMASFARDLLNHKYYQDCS
Sequence of TEC (Homo sapiens) (P42680 242-350): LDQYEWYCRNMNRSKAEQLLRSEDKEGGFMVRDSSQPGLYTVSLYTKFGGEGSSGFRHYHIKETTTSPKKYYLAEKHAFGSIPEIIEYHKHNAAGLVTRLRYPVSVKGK
Sequence of SOCS2 (Homo sapiens) (O14508 43-161): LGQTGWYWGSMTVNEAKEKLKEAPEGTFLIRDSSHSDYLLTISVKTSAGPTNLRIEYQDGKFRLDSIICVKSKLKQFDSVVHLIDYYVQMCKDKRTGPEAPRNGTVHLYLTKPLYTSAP
Sequence of ABL2 (Homo sapiens) (P42684 168-268): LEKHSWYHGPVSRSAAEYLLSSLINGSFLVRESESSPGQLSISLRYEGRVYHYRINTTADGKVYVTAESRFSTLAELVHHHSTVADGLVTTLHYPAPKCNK
Sequence of PLCG2-N (Homo sapiens) (P16885 527-740): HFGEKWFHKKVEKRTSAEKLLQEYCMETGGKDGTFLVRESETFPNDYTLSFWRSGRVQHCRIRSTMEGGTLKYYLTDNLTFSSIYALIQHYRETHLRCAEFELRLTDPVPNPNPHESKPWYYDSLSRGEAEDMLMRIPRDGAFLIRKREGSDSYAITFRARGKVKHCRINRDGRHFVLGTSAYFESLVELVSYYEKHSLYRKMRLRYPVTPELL
Sequence of SH2B3 (Homo sapiens) (Q9UQQ2 359-467): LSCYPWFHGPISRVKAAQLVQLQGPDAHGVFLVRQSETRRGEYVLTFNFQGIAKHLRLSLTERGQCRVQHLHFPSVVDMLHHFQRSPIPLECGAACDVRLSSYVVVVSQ
Sequence of SLA2 (Homo sapiens) (Q9H6Q3 89-196): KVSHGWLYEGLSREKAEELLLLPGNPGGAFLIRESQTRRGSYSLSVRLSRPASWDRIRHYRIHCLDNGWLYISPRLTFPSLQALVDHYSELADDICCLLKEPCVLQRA
Sequence of BCAR3 (Homo sapiens) (O75815 149-258): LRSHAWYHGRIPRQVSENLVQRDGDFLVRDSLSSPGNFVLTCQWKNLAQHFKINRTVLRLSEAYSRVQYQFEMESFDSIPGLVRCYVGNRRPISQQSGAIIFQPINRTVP
Sequence of NCK2 (Homo sapiens) (O43639 280-380): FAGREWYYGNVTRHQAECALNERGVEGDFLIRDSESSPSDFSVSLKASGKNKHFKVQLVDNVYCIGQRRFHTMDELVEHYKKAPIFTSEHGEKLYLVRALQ
Sequence of PIK3R2-NC (Homo sapiens) (O00459 325-721): as the sequence (O00459 325-721) above

Q: Which apparent Kd (screen) [1] does the source give for …pYLIPQQGFd here?
A: 534 nM

Q: What about the apparent Kd (screen) [2] of the same substance?
A: 658 nM

Q: What about the apparent Kd (screen) [3] of the same substance?
A: 794 nM

Q: And the apparent Kd (screen) [4]?
A: 769 nM

Q: And the apparent Kd (screen) [5]?
A: 2000 nM

Q: And the apparent Kd (screen) [6]?
A: 1050 nM

Q: For …pYLVPQQGF, which apparent Kd (screen) [7] is on record?
A: 2000 nM

Q: What about the apparent Kd (screen) [8] of the same substance?
A: 2000 nM

Q: And the apparent Kd (screen) [9]?
A: 912 nM

Q: What about the apparent Kd (screen) [10] of the same substance?
A: 2000 nM

Q: What about the apparent Kd (screen) [11] of the same substance?
A: 2000 nM

Q: And the apparent Kd (screen) [12]?
A: 2000 nM

Q: What about the apparent Kd (screen) [13] of the same substance?
A: 2000 nM

Q: What about the apparent Kd (screen) [14] of the same substance?
A: 2000 nM

Q: With …pYWDQDPPE as the substance, how does the apparent Kd (screen) [15] read?
A: 1970 nM

Q: And the apparent Kd (screen) [16]?
A: 224 nM

Q: What about the apparent Kd (screen) [17] of the same substance?
A: 1780 nM

Q: What about the apparent Kd (screen) [18] of the same substance?
A: 2000 nM

Q: What about the apparent Kd (screen) [19] of the same substance?
A: 2000 nM

Q: What about the apparent Kd (screen) [20] of the same substance?
A: 1120 nM

Q: And the apparent Kd (screen) [21]?
A: 601 nM

Q: What about the apparent Kd (screen) [22] of the same substance?
A: 1710 nM

Q: And the apparent Kd (screen) [23]?
A: 2000 nM

Q: What about the apparent Kd (screen) [24] of the same substance?
A: 1600 nM

Q: What does the source list for …pYEEMRAFQ?
A: apparent Kd (screen) [25]: 499 nM; apparent Kd (screen) [26]: 44 nM; apparent Kd (screen) [27]: 499 nM; apparent Kd (screen) [28]: 1370 nM; apparent Kd (screen) [29]: 639 nM; apparent Kd (screen) [30]: 2000 nM; apparent Kd (screen) [31]: 49 nM
